Laboratory results as given in patent US20240082183A1, “METHODS FOR PREVENTING OR TREATING CONDITIONS RELATED TO T CELL MEDIATED INTESTINAL DISORDERS” (The Regents of the University of Michigan, priority 2021, published 2024).

T1: Recombinant SDHB (Mus musculus, UniProt Q9CQA3)
T1 construct: purchased LSBio LS-G26026
T1 sequence (Q9CQA3 31-282): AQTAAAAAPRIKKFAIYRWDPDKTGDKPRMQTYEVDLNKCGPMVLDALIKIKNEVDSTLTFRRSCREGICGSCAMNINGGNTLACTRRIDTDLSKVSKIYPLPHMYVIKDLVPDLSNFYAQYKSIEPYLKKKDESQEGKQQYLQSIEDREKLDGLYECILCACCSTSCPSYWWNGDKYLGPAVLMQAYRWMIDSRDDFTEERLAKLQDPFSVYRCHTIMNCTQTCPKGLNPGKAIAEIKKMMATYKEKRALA

B1: GzmB: recombinant mouse Granzyme B (protein)
chain: IIGGHEVKPHSRPYMALLSIKDQQPEAICGGFLIREDFVLTAAHCEGSIINVTLGAHNIKEQEKTQQVIPMVKCIPHPDYNPKTFSNDIMLLKLKSKAKRTRAVRPLNLPRRNVNVKPGDVCYVAGWGRMAPMGKYSNTLQEVELTVQKDRECESYFKNRYNKTNQICAGDPKTKRASFRGDSGGPLVCKKVAAGIVSYGYKDGSPPRAFTKVSSFLSWIKKTMKSS
B2: GDF15: growth and differentiation factor15 that promotes the tissue tolerance (protein, UniProt Q99988 195-308, looked up)
Growth/differentiation factor …: ARARNGDHCPLGPGRCCRLHTVRASLEDLGWADWVLSPREVQVTMCIGACPSQFRAANMHAQIKTSLHRLKPDTVPAPCCVPASYNPMVLIQKTDTGVSLQTYDDLLAKDCHCI

What was measured:
SDHA [1] = biological target: T2, SDHA (Mus musculus, UniProt Q8K2B3); experiment: SDHA cleavage assay, isolated mitochondria from IECs; format: biochemical; set-up: 75 ug Isolated mitochondria in 25 ul EDB buffer; from tissue; host or cells: mitochondria isolated from mouse intestinal epithelial cells; conditions: ex vivo
Procedure: (§1) SDHA cleavage assay: 75 ug Isolated mitochondria in 25 ul EDB buffer (10 mM HEPES, 50 mM NaCl, 2 mM MgCl2, 5 mM EGTA and 1 mM DTT) were incubated with 75 ng mouse Granzyme B at 37 degrees and then separated by SDS-PAGE^70. Mouse recombinant SDHA protein with His Tag (LS-G26030, LSBio, Seattle, WA) and mouse recombinant SDHB protein with His Tag (LS-G26026, LSBio) in EDB buffer (25 ug in 8.3 ul) were incubated with 25 ng mouse Granzyme B at 37 degrees for 90 minutes. Proteins were then separated by SDS-PAGE and blotted with anti-His Tag antibody (LS-C60077, 1:1000, LSBio) and anti-SDHA (#ab139181, 1:1000, Abcam).

Recombinant SDHB = biological target: T1, Recombinant SDHB; experiment: SDHA cleavage assay, cell free, recombinant SDHB control; format: biochemical; conditions: 90 minutes
Procedure: as §1

mutated SDHA protein = biological target: T3, mutated SDHA protein (Mus musculus, UniProt Q8K2B3, D241A); experiment: GzmB treatment of SDHA mutated at the putative cleavage site; format: biochemical; conditions: 6 hours
T3 construct: host or cells: E. coli BL21 Star (DE3)
Procedure: Generation of normal SDHA protein and mutated SDHA protein: Target DNA sequence of mouse normal SDHA and mutated SDHA was optimized and synthesized (GenScript). The synthesized sequence was cloned into vector pET-30a(+) with His tag for protein expression in E. coli. E. coli strain BL21 Star™(DE3) was transformed with recombinant plasmid. A single colony was inoculated into LB medium containing related antibiotic; culture was incubated in 37° C. at 200 rpm and then induced with IPTG. SDS-PAGE was used to monitor the expression. Recombinant BL21 Star™ (DE3) stored in glycerol was inoculated into TB medium containing related antibiotic and cultured at 37° C. When the OD600 reached about 1.2, cell culture was induced with IPTG at 15° C./16 h. Cells were harvested by centrifugation. Cell pellets were resuspended with lysis buffer followed by sonication. The precipitate after centrifugation was dissolved using denaturing agent. Target protein was obtained by one-step purification using Ni column. Target protein was sterilized by 0.22 μm filter before stored in aliquots. The concentration was determined by Bradford protein assay with BSA as standard. The protein purity and molecular weight were determined by standard SDS-PAGE along with Western blot confirmation. […]

SDHA [2] = biological target: T2, SDHA; experiment: SDHA cleavage assay, cell free, recombinant SDHA; format: biochemical; set-up: purchased LSBio LS-G26030; conditions: 90 minutes
Procedure: as §1

[3] = test system: primary colonic epithelial cells (PCECs); experiment: Apoptosis of pre-treated PCECs induced by perforin and Granzyme B; format: cell-based, C57BL/6 mice; conditions: pre-treated 2 hours, then perforin and Granzyme B 4 hours
Procedure: Cell culture: C57BL/6 primary colonic epithelial cells (PCEC, C57-6047, Cell Biologics, Chicago, IL) were cultured in compete epithelial growth medium supplemented with insulin-transferrin-selenium, epidermal growth factor, glutamine, antibiotics, antimycotics and fecal bovine serum (#M6621, Cell Biologics). Cells were routinely tested for mycoplasma contamination using MycoAlert (#LT07-318, Lonza, Switzerland). Cells were treated with Mouse active perforin (#APB317Mu01, Cloud-Clone Corp., Katy, TX) and recombinant mouse Granzyme B (#140-03, PeproTech, Rocky Hill, NJ) for 4 to 6 hours in indicated concentrations following manufacturer's recommendations. Cells were incubated with GDF-15 (#8944-GD-025, 500 pg/mL, R&D Systems, Minneapolis, MN), Tiron (#172553, 10 mM, Sigma-Aldrich, St. Louis, MO), Trolox (#648471, 0.5 mM, Sigma-Aldrich), 4-Octyl itaconate (#SML2338, 0.1 mM, Sigma-Aldrich) and NAD (#N8285, 1 mM, Sigma-Aldrich).

T2 sequence (Q8K2B3 43-664): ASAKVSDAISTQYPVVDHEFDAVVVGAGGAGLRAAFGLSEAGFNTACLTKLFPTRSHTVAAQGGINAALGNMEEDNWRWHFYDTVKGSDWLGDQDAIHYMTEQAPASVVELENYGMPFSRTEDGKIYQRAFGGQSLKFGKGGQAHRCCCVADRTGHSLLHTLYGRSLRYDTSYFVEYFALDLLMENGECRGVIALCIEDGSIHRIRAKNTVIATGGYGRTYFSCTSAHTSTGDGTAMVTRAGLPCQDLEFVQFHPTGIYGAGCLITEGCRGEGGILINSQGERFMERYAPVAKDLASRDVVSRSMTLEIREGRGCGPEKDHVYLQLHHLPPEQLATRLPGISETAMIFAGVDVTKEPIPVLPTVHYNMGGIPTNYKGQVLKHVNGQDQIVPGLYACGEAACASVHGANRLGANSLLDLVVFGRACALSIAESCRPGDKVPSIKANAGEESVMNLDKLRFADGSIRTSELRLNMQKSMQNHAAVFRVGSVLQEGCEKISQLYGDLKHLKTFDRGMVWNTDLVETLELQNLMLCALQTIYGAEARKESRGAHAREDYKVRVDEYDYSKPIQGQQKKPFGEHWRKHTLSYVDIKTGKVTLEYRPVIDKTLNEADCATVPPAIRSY
T3 sequence (Q8K2B3 43-664 D241A): as the sequence (Q8K2B3 43-664) above, with D199A counted along it

Row | Molecule | proteolysis of SDHA in isolated mitochondria (SDHA [1]) | proteolysis of recombinant SDHB (Recombinant SDHB) | proteolysis of mutated SDHA (Ile-Glu-Asp-Gly to Ile-Glu-Ala-Gly) (mutated SDHA protein) | proteolysis of recombinant SDHA (SDHA [2]) | apoptosis of PCECs induced by GranzymeB and perforin [3]
1 | B1 | caused proteolysis of SDHA | not SDHB | prevented proteolysis | direct proteolysis | –
2 | B2 | – | – | – | – | did not reduce apoptosis
